Here are results for four molecules from patent US20230212319A1, “NOVEL ANTIGEN BINDING DOMAINS AND SYNTHETIC ANTIGEN RECEPTORS INCORPORATING THE SAME” (University of Southern California, priority 2020, published 2023).

The test system of one assay is SKOV3 cells. Type of assay: cell-based.
Another assay concerns PC3 cells. Briefly: JNG NFAT-GFP induction on co-culture with PC3.
Assay [1] in a line: JNG NFAT-GFP background GFP induction (tonic signaling). The settings on record: JNG cells expressing construct, without target.
Another assay relates to L363 cells. Briefly: JNG assay, co-culture with L363 cells. Type of assay: cell-based. The settings on record: co-culture with L363. Summed up:
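Jurkat NFAT-GFP (JNG) cells stably transduced with SARs by lentivirus, with drug selection where the construct carried a resistance gene, then co-cultured with target cells at E:T ~1:2 for ~4–18 h. % GFP-positive cells measured by FACS against parental JNG; +/- to 5+ correspond to ~5–50% GFP-positive.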

B1: 22687 (protein)
chain: MALPVTALLLPLALLLHAARPDIQMTQSPSSLSASVGDRVTITCRASQDISNYLNWYQQKPGKAPKLLIYYTSRLHSGVPSRFSGSGSGTDFTLTISSLQPEDFATYYCQQGNTLPWTFGQGTKVEIKRLEDLKNVFPPEVAVFEPSEAEISHTQKATLVCLATGFYPDHVELSWWVNGKEVHSGVCTDPQPLKEQPALNDSRYCLSSRLRVSATFWQNPRNHFRCQVQFYGLSENDEWTQDRAKPVTQIVSAEAWGRADCGFTSESYQQGVLSATILYEILLGKATLYAVLVSALVLMAMVKRKDSRGRAKRSGSGATNFSLLKQAGDVEENPGPTSMDWIWRILFLVGAATGAHSFEVQLVESGGGLVQPGGSLRLSCAASGYTFSDYFMSWVRQAPGKGLEWVATISNGGTYTYYPDSVKGRFTISRDNSKNTLYLQMNSLRAEDTAVYYCARFDGYIFDYWGQGTLVTVSSTRIQNPDPAVYQLRDSKSSDKSVCLFTDFDSQTNVSQSKDSDVYITDKCVLDMRSMDFKSNSAVAWSNKSDFACANAFNNSIIPEDTFFPSPESSCDVKLVEKSFETDTNLNFQNLSVIGFRILLLKVAGFNLLMTLRLWSSRAKRSGSGVKQTLNFDLLKLAGDVESNPGPSRGHMTEYKPTVRLATRDDVPRAVRTLAAAFADYPATRHTVDPDRHIERVTELQELFLTRVGLDIGKVWVADDGAAVAVWTTPESVEAGAVFAEIGPRMAELSGSRLAAQQQMEGLLAPHRPKEPAWFLATVGVSPDHQGKGLGSAVVLPGVEAAERAGVPAFLETSAPRNLPFYERLGFTVTADVEVPEGPRTWCMTRKPGA
As for B1, the “NFAT-GFP ASSAY: SKOV-3” value with SKOV3 cells is “weaker but sufficient GFP induction”. Also, the “NFAT-GFP ASSAY: PC-3” value in the assay with PC3 cells was “none to negligible GFP induction”.

B2: 22694 (protein)
chain: MALPVTALLLPLALLLHAARPDIQMTQSPSSLSASVGDRVTITCRASQDISNYLNWYQQKPGKAPKLLIYYTSRLHSGVPSRFSGSGSGTDFTLTISSLQPEDFATYYCQQGNTLPWTFGQGTKVEIKRLEDLKNVFPPEVAVFEPSEAEISHTQKATLVCLATGFYPDHVELSWWVNGKEVHSGVCTDPQPLKEQPALNDSRYCLSSRLRVSATFWQNPRNHFRCQVQFYGLSENDEWTQDRAKPVTQIVSAEAWGRADCGFTSESYQQGVLSATILYEILLGKATLYAVLVSALVLMAMVKRKDSRGRAKRSGSGATNFSLLKQAGDVEENPGPTSMDWIWRILFLVGAATGAHSFEVQLVESGGGLVQPGGSLRLSCAASGFTFSDYFMSWVRQAPGKGLEWVATISNGGTYTYYPDSVKGRFTISRDNSKNTLYLQMNSLRAEDTAVYYCARFDGYIFDYWGQGTLVTVSSTRIQNPDPAVYQLRDSKSSDKSVCLFTDFDSQTNVSQSKDSDVYITDKCVLDMRSMDFKSNSAVAWSNKSDFACANAFNNSIIPEDTFFPSPESSCDVKLVEKSFETDTNLNFQNLSVIGFRILLLKVAGFNLLMTLRLWSSRAKRSGSGVKQTLNFDLLKLAGDVESNPGPSRGHMTEYKPTVRLATRDDVPRAVRTLAAAFADYPATRHTVDPDRHIERVTELQELFLTRVGLDIGKVWVADDGAAVAVWTTPESVEAGAVFAEIGPRMAELSGSRLAAQQQMEGLLAPHRPKEPAWFLATVGVSPDHQGKGLGSAVVLPGVEAAERAGVPAFLETSAPRNLPFYERLGFTVTADVEVPEGPRTWCMTRKPGA
B2: in the assay with SKOV3 cells, the “NFAT-GFP ASSAY: SKOV-3” value is given as “lowest GFP induction”.

B3: 22692 (protein)
chain: MALPVTALLLPLALLLHAARPDIQMTQSPSSLSASVGDRVTITCRASQDISNYLNWYQQKPGKAPKLLIYYTSRLHSGVPSRFSGSGSGTDFTLTISSLQPEDFATYYCQQGNTLPWTFGQGTKVEIKRLEDLKNVFPPEVAVFEPSEAEISHTQKATLVCLATGFYPDHVELSWWVNGKEVHSGVCTDPQPLKEQPALNDSRYCLSSRLRVSATFWQNPRNHFRCQVQFYGLSENDEWTQDRAKPVTQIVSAEAWGRADCGFTSESYQQGVLSATILYEILLGKATLYAVLVSALVLMAMVKRKDSRGRAKRSGSGATNFSLLKQAGDVEENPGPTSMDWIWRILFLVGAATGAHSFEVQLVESGGGLVQPGGSLRLSCAASGFTFSDYFMSWVRQAPGKGLEWVATISNGGTYTYYPDSVKGRFTISRDNSKNTLYLQMNSLRAEDTAVYYCARFDGYIFDYWGQGTLVTVSSTRIQNPDPAVYQLRDSKSSDKSVCLFTDFDSQTNVSQSKDSDVYITDKCVLDMRSMDFKSNSAVAWSNKSDFACANAFNNSIIPEDTFFPSPESSCDVKLVEKSFETDTNLNFQNLSVIGFRILLLKVAGFNLLMTLRLWSSRAKRSGSGVKQTLNFDLLKLAGDVESNPGPSRGHMTEYKPTVRLATRDDVPRAVRTLAAAFADYPATRHTVDPDRHIERVTELQELFLTRVGLDIGKVWVADDGAAVAVWTTPESVEAGAVFAEIGPRMAELSGSRLAAQQQMEGLLAPHRPKEPAWFLATVGVSPDHQGKGLGSAVVLPGVEAAERAGVPAFLETSAPRNLPFYERLGFTVTADVEVPEGPRTWCMTRKPGA
Take B3: the “NFAT-GFP ASSAY: SKOV-3” value with SKOV3 cells is “weaker but sufficient GFP induction”. In addition, in the assay on PC3 cells, the “NFAT-GFP ASSAY: PC-3” value was “none to negligible GFP induction”.

B4: 21997 (protein)
chain: MALPVTALLLPLALLLHAARPQLQLQESGPGLVKPSETLALTCNVSGGSISSSSYYWGWIRQPPGKRLEWIGSIYYSGSTYFNPSLKSRVTISVDTSKNQFSLKLSSVTAADTAVYYCAGGDYYGPVGQWPSDYRGQGTLVTVSSLEDLKNVFPPEVAVFEPSEAEISHTQKATLVCLATGFYPDHVELSWWVNGKEVHSGVCTDPQPLKEQPALNDSRYCLSSRLRVSATFWQNPRNHFRCQVQFYGLSENDEWTQDRAKPVTQIVSAEAWGRADCGFTSESYQQGVLSATILYEILLGKATLYAVLVSALVLMAMVKRKDSRGRAKRSGSGATNFSLLKQAGDVEENPGPTSMDWIWRILFLVGAATGAHSFEQVQLVESGGGLVQPGGSLRLSCAASGFTFTNHAMSWVRQAPGKGLELVSSISGNGRTTYYADSVKGRFTISRDISKNTLDLQMNSLRAEDTAVYYCAKDGGETLVDSRGQGTLVTVSSTRIQNPDPAVYQLRDSKSSDKSVCLFTDFDSQTNVSQSKDSDVYITDKCVLDMRSMDFKSNSAVAWSNKSDFACANAFNNSIIPEDTFFPSPESSCDVKLVEKSFETDTNLNFQNLSVIGFRILLLKVAGFNLLMTLRLWSSRAKRSGSGVKQTLNFDLLKLAGDVESNPGPSRGHMTEYKPTVRLATRDDVPRAVRTLAAAFADYPATRHTVDPDRHIERVTELQELFLTRVGLDIGKVWVADDGAAVAVWTTPESVEAGAVFAEIGPRMAELSGSRLAAQQQMEGLLAPHRPKEPAWFLATVGVSPDHQGKGLGSAVVLPGVEAAERAGVPAFLETSAPRNLPFYERLGFTVTADVEVPEGPRTWCMTRKPGA
Take B4: in assay [1], the “NFAT-GFP ASSAY: Self Activation (SA)” value is on record as “Self Activation”. Also, the “NFAT-GFP ASSAY: L363” value in the assay on L363 cells was “+ (refer to approximately 5%, 10%, 20%, 30%, 40% and 50% GFP positive cells)”.
